Experiment [1] has as its target NrtB of Anabaena sp. PCC 7120 (transmembrane subunit, as it stands in NrtBCD) (Anabaena sp. PCC 7120). Nature of the experiment: cryo-EM structure.
The target in experiment [2] is signaling protein PII of Anabaena sp. PCC 7120 (Anabaena sp. PCC 7120). In words: cryo-EM structure.
The target in experiment [3] is NrtBCD (nitrate site in NrtB dimer) (Nostoc sp. PCC 7120 = FACHB-418, UniProt A0ACD6B946). In words: colorimetric ATPase assay. In kind it is biochemical. Particulars: 2 mM MgCl2, 50 mM Tris-HCl pH 8.0, 150 mM NaCl, 0.02% GDN, 37 °C.

The source of these data is paper PMC10945777 (Proceedings of the National Academy of Sciences of the …, 2024).

In the case of “NrtB of Anabaena sp. PCC 7120 (transmembrane subunit, as it stands in NrtBCD) (natural protein)”, the stoichiometry N (commonly the number of molecules, sites or subunits per partner or assembly) in experiment [1] came to 2. “signaling protein PII of Anabaena sp. PCC 7120 (natural protein)”: in experiment [2], the stoichiometry N is 3. Regarding `O=[N+]([O-])O` [nitrate], in experiment [3], the “fold stimulation of ATPase activity at 8 mM” value is on record as ~ 2.5 fold.
